Measurements published in publication PMC6530869.

Columns and labels:
Details in all cases: SpdR and RtrB: 20 mM HEPES pH 7.8, 4 mM MgCl2, 37 mM KCl, 1 mM CaCl2, 0.75 mM DTT, 8% glycerol, 75 ug/ml BSA; RtrA: 10 mM Tris pH 7.6, 2 mM MgCl2, 50 mM KCl …
[1] = biological target: T1, RtrA (Caulobacter crescentus (NA1000?)) (UniProt A0A0H3CB76); assay: competition
T1 sequence: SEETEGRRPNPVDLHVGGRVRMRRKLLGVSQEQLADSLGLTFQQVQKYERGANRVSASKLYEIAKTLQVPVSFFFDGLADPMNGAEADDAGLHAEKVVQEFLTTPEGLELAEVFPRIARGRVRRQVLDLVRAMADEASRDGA

[2] = biological target: T2, RtrB (Caulobacter crescentus (NA1000?)) (UniProt A0A0H3C9Q5); assay: competition
T2 sequence: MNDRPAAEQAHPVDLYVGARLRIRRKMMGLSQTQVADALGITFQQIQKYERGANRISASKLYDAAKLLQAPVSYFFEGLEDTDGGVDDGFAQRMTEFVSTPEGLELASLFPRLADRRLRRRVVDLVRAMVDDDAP

[3] = biological target: T3, SpdR(D64E) D64E (Caulobacter crescentus (NA1000?)) (UniProt A0A0H3C6B9); assay: EMSA
T3 sequence: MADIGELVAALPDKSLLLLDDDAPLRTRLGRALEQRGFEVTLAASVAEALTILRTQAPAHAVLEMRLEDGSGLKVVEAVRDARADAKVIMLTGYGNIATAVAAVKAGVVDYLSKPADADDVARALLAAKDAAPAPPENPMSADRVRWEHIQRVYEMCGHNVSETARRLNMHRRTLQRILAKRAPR

[4] = biological target: T1, RtrA (Caulobacter crescentus (NA1000?)); assay: EMSA
[5] = biological target: T2, RtrB (Caulobacter crescentus (NA1000?)); assay: EMSA

Sequence | binding [1] | binding [2] | binding [3] | binding [4] | binding [5]
TGGTGGTCCTGATCCTCCTGCAGCGACCGATCGTGCATCGCGCGCTGGTTCCCGCGCTCCTGCTCGCCTGGCTGGTCCTGAACGGGACGGACGTGATGCACTACAGCTAGGGCTCGGCGGCTCTGGTAAACAACCCAACCCCGATCAACGAAGGTTTAGAAAGCTTTAAGAGAAACGTTGCGAATTGTAAAATTCTTCTCTGGGTTGAAACCCATTTCGGGTGTATCGATGAGGTGTCGGGCCATTTATTGAGCGCGGACAGGATGTTGTCAGTG (double strand) [unlabeled specific hfiA competitor] | binds | binds |  |  | 
CTAGGGACTGCCATCTTCGGCTGTATTTCAGATTTGTTTCCGCATTGTGGCTGCGACGAAATGTCGCGGTACCCGCTTGTGCGCTGTTTTGACGCGATTTCGTCATTGACGGCTCTCCTCACGCGAGAACACTGTTCTTGTAGTGCTTGCTCCGATGGGCTGATTGGGCAAGCCAGAGGGGTGGGATGTCTGGTTACGA (double strand) [cspD promoter probe] |  |  | binds |  | 
TGGTGGTCCTGATCCTCCTGCAGCGACCGATCGTGCATCGCGCGCTGGTTCCCGCGCTCCTGCTCGCCTGGCTGGTCCTGAACGGGACGGACGTGATGCACTACAGCTAGGGCTCGGCGGCTCTGGTAAACAACCCAACCCCGATCAACGAAGGTTTAGAAAGCTTTAAGAGAAACGTTGCGAATTGTAAAATTCTTCTCTGGGTTGAAACCCATTTCGGGTGTATCGATGAGGTGTCGGGCCATTTATTGAGCGCGGACAGGATGTTGTCAGTG (double strand) [hfiA promoter probe] |  |  | no binding | binds | binds
